“Also recorded” adds a separate entry of the source.

The subject of one series is NLRC4 inflammasome. As to the kind of experiment: Flagellin-induced caspase-1 activation in wild type BMDM pre-treated with NRTIs, immunoblot. The series is classed as cell-based, mouse. Conditions: pre-treated 1 hour, flagellin 3 μg/ml (FIG. 31). As for the experimental part:
FIG. 27. NRTI block Flagellin induced NLRC4 inflammasome in BMDM. Wild type BMDM cells were pre-treated with exemplary NRTIs (D4T, 3TC) at 100 μM for 1 hour, and then stimulated with flagellin transfection (3 μg/ml). Supernatant and cell lysate were collected for Caspase-1 detection. […] The caspase-1 (p20) bands are indicated with black arrow.
FIG. 28. NRTI (3TC) blocks flagellin-induced NLRC4 inflammasome in a dose dependent manner. Wild type BMDM cell were pre-treated with indicated dose of NRTI (3TC) for 1 hour, and then stimulated with Flagellin transfection (3 μg/ml). Supernatants were collected for Caspase-1 detection. […] The caspase-1 (p20) bands are indicated with black arrow.
FIG. 31. Modified NRTIs (K8, K9) block flagellin-induced NLRC4 inflammasome in BMDM. Wild type BMDM cell were pre-treated with regular NRTI (D4T, 3TC), the modified NRTIs 3-Methyl-3TC (K9) or 2-Ethyl-AZT (K8), or NLRP3 inhibitors (MCC950, CY-09) for 1 hour, and then stimulated with flagellin transfection (3 μg/ml). Supernatants were collected for secreted caspase-1 detection. […] The caspase-1 (p20) bands are indicated with black arrow.
Nucleoside reverse transcriptase inhibitors (NRTIs) are HIV therapeutics that inhibit retrovirus replication. We have previously shown that NRTIs inhibit P2X7-mediated NLRP3 inflammasome activation by an endogenous retroelement Alu RNA (SEQ ID NO: 86). Activation of NLRP3 inflammasome by Alu RNA (SEQ ID NO: 86) causes the death of retinal pigment epithelium (RPE) in geographic atrophy, a severe form of AMD. […] Currently, multiple NLRP3 inflammasome inhibitors such as MCC950, CY09 are available however, there are no inhibitors of NLRC4. So, a need exists to develop inhibitors of NLRC4 inflammasome to study NLRC4 driven diseases. Here, we show for the first time that NRTIs block flagellin induced NLRC4 inflammasome. We pretreated flagellin transfected BMDMs with DT4 and 3TC to examine caspase-1 activation.
NLRC4 oligomerization is another hallmark of inflammasome activation where high-molecular mass NLRC4 protein complexes are assembled. […]

For a further series, the system named is caspase-1. The series is described as follows: Alu RNA induced caspase-1 activation in THP1 cells after siRNA knockdown. Conditions: siRNA knockdown (FIGS. 11A, 11B). It counts as cell-based, human. An excerpt: FIGS. 11A and 11B. Ddx17 involved in Alu RNA (SEQ ID NO: 86) induced inflammasome independent of its microprocessor function. DDX17 is a component of microprocessor complexes with DDX5 and Drosha. To test whether the microprocessor function of DDX17 is required for Alu RNA (SEQ ID NO: 86) induced inflammasome, we measured caspase-1 activation in THP cells with DDX5 or Drosha knockdown (siRNA for DDX5: GGAAAUUACAGUUAGAGGU; SEQ ID NO: 89); siRNA for Drosha: GACAAGUUGAUAGGAUAUA; SEQ ID NO: 90). FIG. 11A. siRNA mediated Ddx17 knockdown, but not Ddx5 in THP1 cells, blocked Alu RNA (SEQ ID NO: 86) induced caspase-1 activation. […] The caspase-1 (p20) bands were indicated with black arrows.
We next examined whether DDX5 or DDX17 was the sensor for Alu RNA (SEQ ID NO: 86) induced NLRC4 inflammasome activation. Due to the high degree of similarity in the sequences of DDX5 and DDX17, we designed 3 siRNAs targeting DDX5 alone, DDX17 alone, or both DDX5 and DDX17, and confirmed their target efficiency in THP1 cells (FIG. 11A). […] Therefore, we tested whether Drosha is also involved in SINE RNA-DDX17-NLRC4 axis. […] These observations implicate that DDX17 mediated SINE RNA induced NLRC4 inflammasome is independent of microprocessor function.

For series [1], the target named is Ddx17 (bait of the Ddx complex, Table 3) (UniProt Q92841). The series is described as follows: IP tandem mass spectrometry of the Ddx17 complex, mock-treated.
For series [2] the target is unchanged. As to the kind of experiment: IP tandem mass spectrometry of the Ddx17 complex, Alu RNA-treated.
Series [3] has as its system NLRC4 phosphorylation (site S533). The series is described as follows: SINE RNA induced NLRC4 phosphorylation (S533) in BMDM, Western blot. It counts as cell-based, mouse. To be noted: SINE RNAs each at 100 pmol, polyI:C 10 μg/ml (FIG. 1). As for the experimental part:
FIG. 1. SINE RNA induced NLRC4 phosphorylation (site S533) in mice macrophage (BMDM). Mouse bone marrow derived macrophage (BMDM) were treated with SINE RNAs (Alu (SEQ ID NO: 86), B1 (SEQ ID NO: 87), and B2 (SEQ ID NO: 88), each at 100 pmol), and polyI:C (10 μg/ml). Phosphorylated Nlrc4 (p-Nlrc4) and total Nlrc4 (t-Nlrc4) were detected by Western blot. Actin is provided as a loading control. The p-NLRC4 bands were indicated by black arrow.
Previous studies have shown that NLRC4 inflammasome activation in response to Salmonella exposure requires two steps for its activation, phosphorylation on Ser533 residue of NLRC4 and NAIP mediated oligomerization of NLRC4. […] Moreover, treatment with SINE RNAs induced caspase-1 p20 cleavage, indicative of inflammasome activation (FIG. 2). For the subsequent experiments in this study, we used Alu RNA (SEQ ID NO: 86) as the stimulus to activate the NLRC4 inflammasome. To date, two kinases are reported to phosphorylate NLRC4 at S533: protein kinase C delta (PKCδ) and leucine rich repeat-containing kinase-2 (LRRK2). To explore the roles of these kinases in Alu RNA (SEQ ID NO: 86) induced NLRC4 phosphorylation, we pretreated BMDMs with pharmacological inhibitors of LRRK2 (GSK2578215A, GSK) and PKCδ (Rottlerin, Rot) respectively.

The subject of another series is ASC specks. The series is described as follows: SINE RNA induced ASC specks in BMDM, immunofluorescence. The series is classed as cell-based, mouse. Conditions: BMDMs, transfection vs Mock (FIG. 3A). Here is the method:
FIGS. 3A and 3B. SINE RNA-induced ASC oligomerization is dependent on NLRC4 (BMDM). FIG. 3A. Immunofluorescence images of endogenous ASC specks and NLRC4 puncta in BMDMs after transfected with Alu (SEQ ID NO: 86) or B2 (SEQ ID NO: 88) RNA or transfection reagents only (Mock). […] Moreover, NLRC4 proteins assembled as puncta, and co-resided with ASC specks. FIG. 3B. ASC oligomerizations were evaluated in wild-type and Nlrc4^−/− BMDMs through cross-linking and western blot. […] The bands of oligomeric ASC protein were indicated by black arrow.
The activated NLRC4 inflammasome undergoes oligomerization by assembling into high-molecular mass multiprotein complexes. We first investigated in situ assembling of NLRC4 and apoptosis speck (ASC) like protein complexes in response to SINE RNA treatment of BMDMs. Immunofluorescence studies show increased NLRC4 and ASC specks in SINE RNA-treated BMDMs compared to mock-treated cells (FIG. 3A). To assess NLRC4 inflammasome assembly, WT and NLRC4 KO BMDM cells were treated with Alu RNA (SEQ ID NO: 86). Disuccinimidyl suberate (DSS) cross-linked lysates were resolved using denaturing SDS-PAGE to detect ASC oligomers and cell lysates were resolved using native polyacrylamide gel electrophoresis (NATIVE-PAGE) to detect NLRC4 oligomerization. […] NLRC4/ASC oligomerization is essential for the cleavage of pro-caspase-1 into its active form p20 and IL-1β release.

Ddx17 (bait of the Ddx complex, Table 3), sequence (Q92841 whole entry, one chain of several): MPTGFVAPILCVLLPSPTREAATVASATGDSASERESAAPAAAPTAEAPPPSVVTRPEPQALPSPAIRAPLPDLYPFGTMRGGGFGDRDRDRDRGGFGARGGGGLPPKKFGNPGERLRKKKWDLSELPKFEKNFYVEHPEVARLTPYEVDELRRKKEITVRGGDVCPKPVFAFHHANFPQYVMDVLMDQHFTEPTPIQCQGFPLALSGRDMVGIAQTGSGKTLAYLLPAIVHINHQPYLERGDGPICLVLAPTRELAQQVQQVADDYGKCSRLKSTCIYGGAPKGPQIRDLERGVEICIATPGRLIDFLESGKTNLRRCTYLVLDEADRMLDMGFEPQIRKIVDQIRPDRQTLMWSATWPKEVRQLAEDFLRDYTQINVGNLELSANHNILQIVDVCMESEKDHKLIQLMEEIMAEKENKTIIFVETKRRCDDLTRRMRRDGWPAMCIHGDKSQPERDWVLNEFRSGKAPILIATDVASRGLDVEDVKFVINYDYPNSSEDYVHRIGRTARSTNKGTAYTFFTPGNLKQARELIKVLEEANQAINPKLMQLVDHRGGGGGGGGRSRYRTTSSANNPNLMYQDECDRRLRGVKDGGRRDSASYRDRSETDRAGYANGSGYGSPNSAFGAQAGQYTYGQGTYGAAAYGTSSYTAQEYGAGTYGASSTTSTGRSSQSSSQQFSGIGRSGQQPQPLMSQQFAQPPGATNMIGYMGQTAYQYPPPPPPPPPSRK

Regarding 2-Ethyl-AZT [K8], in the series on NLRC4 inflammasome, the “flagellin induced caspase-1 activation, modified NRTIs” value is “blocked; also recorded: inhibited”.
On the same count and under the same terms, to 3-Methyl-3TC [K9] belongs “blocked; also recorded: inhibited”.
Consider “DDX5 siRNA: siRNA for DDX5: GGAAAUUACAGUUAGAGGU; SEQ ID NO: 89 (chemistry not fully specified)”, for which the “caspase-1 cleavage in Alu RNA treated THP1 cells” value in the series on caspase-1 was “did not do so”.
The molecule “Ddx5 (Table 3) (from UniProt P17844 1-614)” showed a Peptides in series [1] of 10 peptides.
The molecule “Ddx5 (Table 3) (from UniProt P17844 1-614) (enzyme)” showed a Coverage (%) in series [1] of 17%. In series [2], this molecule came in with a Coverage (%) of 25% and a Peptides of 15 peptides.
In series [1], “Nlrp1 (Table 3) (from UniProt Q9C000 1-1473) (receptor)” yielded a Coverage (%) of 0% and a Peptides of 0 peptides. Further, in series [2], the Coverage (%) came to 6.6% and the Peptides came to 2 peptides.
The corresponding values for “Nlrp3 (Table 3) (from UniProt Q96P20 1-1036) (receptor)” are 0%, 0 peptides, 3.7% and 3 peptides.
The corresponding values for “Nlrp8 (Table 3) (from UniProt Q86W28 1-1048) (receptor)” are 0%, 0 peptides, 2.9% and 2 peptides.
Regarding poly(I:C), the “NLRC4 phosphorylation on S533 in BMDMs” value in series [3] was “did not induce”.
Consider “siDrosha: siRNA for Drosha: GACAAGUUGAUAGGAUAUA; SEQ ID NO: 90 (listed as RNA, chemistry not given here)”, for which, in the series with caspase-1, the “caspase-1 cleavage in Alu RNA treated THP1 cells” value is on record as “did not”.

B1: B2: mouse SINE B2 RNA, SEQ ID NO: 88 (nucleic acid)
chain: GGGCUGGAGAGAUGGCUCAGUGGUUAAGAGCACCUGACUGCUCUUCCAGAGGUCCUGAGUUCAAUUCCCAGCAACCACAUGGUGGCUCACAACCAUCUGUAAUGAGAUCUGAUGCCCUCUUCUGGUGUGUCUGAAGACAGCUACAGUGUACUUACAUAUAAUAAAUAAAUAAAUAAAUAAAUCUUAAAAAAAAAAAAAAGAAAGAAAAA
modifications: Artificially synthesized B2 RNA
B1: the “formation of ASC specks” value in the series on ASC specks is listed as “induced the formation of ASC specks”. In addition, the “NLRC4 phosphorylation on S533 in BMDMs” value in series [3] is “induced”.
